Article doi:10.1101/2024.05.21.594841 (bioRxiv, 2024)

Key:
Assay in all cases: split reporter
Sed4p = biological target: T1, Sed4p (S. cerevisiae, UniProt P25365 1-1065)
T1 sequence: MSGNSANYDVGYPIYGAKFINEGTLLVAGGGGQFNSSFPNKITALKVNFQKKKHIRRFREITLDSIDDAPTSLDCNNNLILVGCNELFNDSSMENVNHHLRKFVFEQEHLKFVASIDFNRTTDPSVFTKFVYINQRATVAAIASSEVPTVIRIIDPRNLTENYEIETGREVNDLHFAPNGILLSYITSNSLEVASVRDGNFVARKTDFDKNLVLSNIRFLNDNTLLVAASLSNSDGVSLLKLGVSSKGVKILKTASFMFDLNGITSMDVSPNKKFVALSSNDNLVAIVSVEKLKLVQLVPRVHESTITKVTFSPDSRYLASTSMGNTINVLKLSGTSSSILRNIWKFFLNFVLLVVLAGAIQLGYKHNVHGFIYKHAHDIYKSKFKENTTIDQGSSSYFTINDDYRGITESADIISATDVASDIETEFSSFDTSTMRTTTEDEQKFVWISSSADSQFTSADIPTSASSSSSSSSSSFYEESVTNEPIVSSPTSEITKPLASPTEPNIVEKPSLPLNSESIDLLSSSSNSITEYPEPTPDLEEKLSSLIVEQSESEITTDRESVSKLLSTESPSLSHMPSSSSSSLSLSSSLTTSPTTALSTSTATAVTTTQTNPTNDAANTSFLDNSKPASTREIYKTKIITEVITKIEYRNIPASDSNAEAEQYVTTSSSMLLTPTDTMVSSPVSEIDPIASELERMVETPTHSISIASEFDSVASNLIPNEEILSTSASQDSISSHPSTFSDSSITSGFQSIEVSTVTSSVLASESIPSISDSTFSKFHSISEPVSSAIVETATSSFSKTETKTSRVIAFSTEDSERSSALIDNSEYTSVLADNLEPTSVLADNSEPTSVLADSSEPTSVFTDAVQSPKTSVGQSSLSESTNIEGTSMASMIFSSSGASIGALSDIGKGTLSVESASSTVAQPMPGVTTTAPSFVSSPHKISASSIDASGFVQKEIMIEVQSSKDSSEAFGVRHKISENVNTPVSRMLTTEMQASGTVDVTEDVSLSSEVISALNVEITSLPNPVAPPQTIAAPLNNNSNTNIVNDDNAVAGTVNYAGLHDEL

Mpd1p = biological target: T2, Mpd1p (S. cerevisiae, UniProt Q12404 22-318)
T2 sequence: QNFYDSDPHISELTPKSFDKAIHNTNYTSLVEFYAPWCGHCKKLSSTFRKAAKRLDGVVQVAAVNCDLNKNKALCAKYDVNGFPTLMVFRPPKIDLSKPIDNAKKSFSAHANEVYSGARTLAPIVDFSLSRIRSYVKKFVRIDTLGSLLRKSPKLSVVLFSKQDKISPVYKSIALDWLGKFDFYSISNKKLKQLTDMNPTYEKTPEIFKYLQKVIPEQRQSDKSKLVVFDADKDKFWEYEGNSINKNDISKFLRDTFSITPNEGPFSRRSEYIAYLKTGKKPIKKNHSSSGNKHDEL

Eug1p = biological target: T3, Eug1p (S. cerevisiae, UniProt P32474 30-517)
T3 sequence: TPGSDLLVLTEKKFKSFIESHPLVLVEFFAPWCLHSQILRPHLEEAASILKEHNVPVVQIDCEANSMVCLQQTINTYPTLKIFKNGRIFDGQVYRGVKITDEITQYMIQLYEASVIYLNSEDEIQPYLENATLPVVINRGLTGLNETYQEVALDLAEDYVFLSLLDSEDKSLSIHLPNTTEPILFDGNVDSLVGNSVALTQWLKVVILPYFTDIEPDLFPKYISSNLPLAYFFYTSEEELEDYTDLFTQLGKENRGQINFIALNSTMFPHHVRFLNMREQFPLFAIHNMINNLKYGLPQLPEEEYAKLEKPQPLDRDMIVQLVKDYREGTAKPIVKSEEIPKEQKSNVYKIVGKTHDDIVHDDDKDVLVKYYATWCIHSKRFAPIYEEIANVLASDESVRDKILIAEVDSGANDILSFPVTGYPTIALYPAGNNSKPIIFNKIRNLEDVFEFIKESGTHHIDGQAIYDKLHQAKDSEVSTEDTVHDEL

Kar2p = Kar2p (S. cerevisiae, UniProt P16474 43-682)
Chain of Kar2p (P16474 43-682): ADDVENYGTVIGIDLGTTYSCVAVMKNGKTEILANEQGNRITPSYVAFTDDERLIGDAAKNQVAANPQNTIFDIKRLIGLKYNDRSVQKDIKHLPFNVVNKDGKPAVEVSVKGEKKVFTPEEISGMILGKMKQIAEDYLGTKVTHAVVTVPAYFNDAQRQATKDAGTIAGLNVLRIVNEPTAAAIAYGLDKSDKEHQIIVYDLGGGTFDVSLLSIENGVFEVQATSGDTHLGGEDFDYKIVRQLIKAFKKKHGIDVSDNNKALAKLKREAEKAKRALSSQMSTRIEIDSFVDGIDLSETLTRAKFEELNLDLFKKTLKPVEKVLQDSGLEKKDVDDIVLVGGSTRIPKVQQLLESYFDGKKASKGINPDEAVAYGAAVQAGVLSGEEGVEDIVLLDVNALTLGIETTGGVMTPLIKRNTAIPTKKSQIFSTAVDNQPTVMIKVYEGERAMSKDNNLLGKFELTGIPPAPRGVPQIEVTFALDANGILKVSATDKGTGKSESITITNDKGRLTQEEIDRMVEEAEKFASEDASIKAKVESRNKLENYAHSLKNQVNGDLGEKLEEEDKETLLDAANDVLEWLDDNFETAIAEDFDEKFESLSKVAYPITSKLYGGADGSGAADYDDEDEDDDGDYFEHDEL

normalized interacting score (Sed4p): > 40%
normalized interacting score (Mpd1p): 18%
normalized interacting score (Eug1p): > 40%
normalized interacting score (Kar2p): 93%
B1: Lhs1p (natural protein)
chain: AVLGVDYGQQNIKAIVVSPQAPLELVLTPEAKRKEISGLSIKRLPGYGKDDPNGIERIYGSAVGSLATRFPQNTLLHLKPLLGKSLEDETTVTLYSKQHPGLEMVSTNRSTIAFLVDNVEYPLEELVAMNVQEIANRANSLLKDRDARTEDFVNKMSFTIPDFFDQHQRKALLDASSITTGIEETYLVSEGMSVAVNFVLKQRQFPPGEQQHYIVYDMGSGSIKASMFSILQPEDTTQPVTIEFEGYGYNPHLGGAKFTMDIGSLIENKFLETHPAIRTDELHANPKALAKINQAAEKAKLILSANSEASINIESLINDIDFRTSITRQEFEEFIADSLLDIVKPINDAVTKQFGGYGTNLPEINGVILAGGSSRIPIVQDQLIKLVSEEKVLRNVNADESAVNGVVMRGIKLSNSFKTKPLNVVDRSVNTYSFKLSNESELYDVFTRGSAYPNKTSILTNTTDSIPNNFTIDLFENGKLFETITVNSGAIKNSYSSDKCSSGVAYNITFDLSSDRLFSIQEVNCICQSENDIGNSKQIKNKGSRLAFTSEDVEIKRLSPSERSRLHEHIKLLDKQDKERFQFQENLNVLESNLYDARNLLMDDEVMQNGPKSQVEELSEMVKVYLDWLEDASFDTDPEDIVSRIREIGILKKKIELYMDSAKEPLNSQQFKGMLEEGHKLLQAIETHKNTVEEFLSQFETEFADTIDNVREEFKKIKQPAYVSKALSTWEETLTSFKNSISEIEKFLAKNLFGEDLREHLFEIKLQFDMYRTKLEEKLRLIKSGDESRLNEIKKLHLRNFRLQKRKEEKLKRKLEQEKSRNNNETESTVINSADDKTTIVNDKTTESNPSSEEDILHDEL
